Experiment [1] deals with T1, β-secretase (enzyme preparation not stated for the inhibitor assays) (human, UniProt P56817 46-501, limits assumed). In words: cell-based or functional assay.
The target of experiment [2] is T1, β-secretase (enzyme preparation not …). In words: cell-based or functional assay. This is another data set of the same source.

Numbered stars: 1 amine (or outer) side, 2 acyl side, 3 side chain; on linkers, the order of the positions; unused ones are H or OH. Square brackets hold non-standard residues; d marks the D form. Ends that are not written are not given here. Ahppa(3S,4S) = O=C(C[C@H](O)[C@H](Cc1ccccc1)N[*:1])[*:2]; ACHPA = O=C(C[C@H](O)[C@H](CC1CCCCC1)N[*:1])[*:2]; Sta = CC(C)C[C@H](N)[C@@H](O)CC(=O)O; Phg = N[C@H](C(=O)O)c1ccccc1; Nle = CCCC[C@H](N)C(=O)O; norSta = nor-statine Bounds are passed on as bounds.

T1 sequence (P56817 46-501 limits assumed): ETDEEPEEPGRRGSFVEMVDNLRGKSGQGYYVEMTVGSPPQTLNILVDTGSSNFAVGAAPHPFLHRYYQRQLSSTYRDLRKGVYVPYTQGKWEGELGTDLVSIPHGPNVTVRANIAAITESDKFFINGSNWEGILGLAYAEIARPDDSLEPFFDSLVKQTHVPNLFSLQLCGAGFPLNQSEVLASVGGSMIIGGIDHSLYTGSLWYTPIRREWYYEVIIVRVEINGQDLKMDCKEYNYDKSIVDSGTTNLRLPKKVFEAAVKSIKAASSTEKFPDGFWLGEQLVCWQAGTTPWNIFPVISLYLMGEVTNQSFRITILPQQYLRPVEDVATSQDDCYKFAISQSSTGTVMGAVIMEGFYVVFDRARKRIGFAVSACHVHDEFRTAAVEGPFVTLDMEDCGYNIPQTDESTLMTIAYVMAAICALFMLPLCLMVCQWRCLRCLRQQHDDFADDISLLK

Consider Ac-V[Nle][Sta]VAEF [heptamer peptide 7H (Ac-Val-nLeu-Sta-Val-Ala-Glu-Phe)], for which the “IC50 Group, MBP C125 assay (Group I: IC50 of <µm [sic])” value in experiment [1] is less than 1 µM.

With Ac-VM[norSta]VAEF [heptamer peptide 7P (Ac-Val-Met-norSta-Val-Ala-Glu-Phe)], the “IC50 Group, MBP C125 assay (Group II: =1<10 µM)” value in experiment [1] was less than 10 µM.

In the case of Ac-V[Phg][Sta]VAEF [heptamer peptide 7G (Ac-Val-Phg-Sta-Val-Ala-Glu-Phe)], in experiment [1], the “IC50 Group, MBP C125 assay (Group I: IC50 of <µm [sic])” value was less than 1 µM.

With Ac-VM[Ahppa(3S,4S)]VAEF [heptamer peptide 7O (Ac-Val-Met-pheSta-Val-Ala-Glu-Phe)], the “IC50 Group, MBP C125 assay (Group I: IC50 of <µm [sic])” value in experiment [1] was less than 1 µM.

Take H-VM[ACHPA]VAEF [heptamer peptide 7Q ((NH2)Val-Met-acha-Val-Ala-Glu-Phe)]: the “IC50 Group, MBP C125 assay (Group II: =1<10 µM)” value in experiment [1] is less than 10 µM.

Ac-VF[Sta]VAEF [heptamer peptide 7J (Ac-Val-Phe-Sta-Val-Ala-Glu-Phe)]: the “IC50 Group, MBP C125 assay (Group II: =1<10 µM)” value in experiment [1] is less than 10 µM.

With Ac-VM[Sta]VAEF [heptamer peptide 7B (Ac-Val-Met-Sta-Val-Ala-Glu-Phe)], the “IC50 Group, MBP C125 assay (Group I: IC50 of <µm [sic])” value in experiment [1] was less than 1 µM.

Regarding KTEEISEVN[Sta]VAEF [P10-P4′staD→V], the “inhibitor potency relative to the valine substitution alone” value in experiment [2] is roughly 100 times.

Regarding Ac-VN[Sta]VAEF [heptamer peptide 7I (Ac-Val-Asn-Sta-Val-Ala-Glu-Phe)], in experiment [1], the “IC50 Group, MBP C125 assay (Group II: =1<10 µM)” value was less than 10 µM.

Values taken from patent US7514408 (ELAN PHARMACEUTICALS, dated 2009).
